In paper PMC10897342, “An octameric PqiC toroid stabilises the outer-membrane interaction of the PqiABC transport system” (EMBO Reports, 2024):

Columns and labels:
[1] = molecular target: the molecule itself; test: crystal structure; PqiC-His in DDM; 3.2 Å; two chains in the asymmetric unit, octameric toroid by the symmetry of the unit cell; interface analysed with PDBePISA
[2] = molecular target: T1, PqiAB subcomplex (PqiA residues 1–417 and PqiB residues 1–546, C-terminal hexa-histidine tag) (E. coli, UniProt P0AFL9 1-417; P43671 1-546); test: neutron reflectometry; PqiC in a supported dDMPC bilayer on silicon; PqiAB-DMPC proteoliposomes (0.01 mg/mL PqiAB) incubated 30 minutes, washed; 20 mM BTP, 150 mM NaCl, pH 8.5; 25 °C; isotopic contrast variation; conditions: both partners purified
T1 construct: PqiA, integral inner membrane protein of E. coli, residues 1–417; PqiB, periplasm-spanning MCE family protein of E. coli, residues 1–546; also called purified PqiAB subcomplex; PqiAB-proteoliposomes; copies: + 6
T1 sequence (looked up) 1: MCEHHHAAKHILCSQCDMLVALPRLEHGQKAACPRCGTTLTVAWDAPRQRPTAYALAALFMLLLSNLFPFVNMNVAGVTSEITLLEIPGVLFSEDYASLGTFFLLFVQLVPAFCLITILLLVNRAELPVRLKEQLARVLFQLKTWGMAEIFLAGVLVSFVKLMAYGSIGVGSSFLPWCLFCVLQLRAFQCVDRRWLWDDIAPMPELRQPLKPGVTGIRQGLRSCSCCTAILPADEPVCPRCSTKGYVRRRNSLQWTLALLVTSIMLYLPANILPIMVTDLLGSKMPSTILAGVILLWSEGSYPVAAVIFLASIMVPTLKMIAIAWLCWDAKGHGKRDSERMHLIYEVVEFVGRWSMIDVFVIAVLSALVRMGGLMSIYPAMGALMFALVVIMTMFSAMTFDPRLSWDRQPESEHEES
T1 sequence (looked up) 2: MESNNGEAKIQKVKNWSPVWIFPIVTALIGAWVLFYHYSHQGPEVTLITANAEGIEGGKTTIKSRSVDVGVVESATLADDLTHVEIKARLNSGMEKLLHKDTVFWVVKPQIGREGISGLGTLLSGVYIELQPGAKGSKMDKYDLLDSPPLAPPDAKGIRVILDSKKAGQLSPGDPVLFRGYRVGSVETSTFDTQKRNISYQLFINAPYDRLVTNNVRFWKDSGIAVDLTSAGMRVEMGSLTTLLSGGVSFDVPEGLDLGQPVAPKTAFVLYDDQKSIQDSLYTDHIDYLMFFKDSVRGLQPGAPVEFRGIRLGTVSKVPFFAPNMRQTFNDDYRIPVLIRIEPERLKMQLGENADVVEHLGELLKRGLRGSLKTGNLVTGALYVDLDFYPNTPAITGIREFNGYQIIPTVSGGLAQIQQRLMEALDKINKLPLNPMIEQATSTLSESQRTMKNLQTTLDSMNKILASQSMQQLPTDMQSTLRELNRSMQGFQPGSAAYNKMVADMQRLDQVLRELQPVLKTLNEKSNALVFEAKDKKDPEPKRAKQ

[3] = molecular target: T2, PqiB (residues 1–546) with a C-terminal hexa-histidine tag, of the PqiAB construct (E. coli, UniProt P43671 1-546); test: QCM-D; PqiC-Strep in a supported DMPC bilayer on a silicon sensor; PqiAB-DMPC proteoliposomes flowed over, then buffer; 25 °C, 0.1 mL/min; 20 mM Bis-Tris Propane, 150 mM NaCl, pH 8.5; conditions: both partners purified
T2 construct: PqiB, periplasm-spanning MCE family protein of E. coli, residues 1–546; Always present together with PqiA in the experiments; also called hexameric PqiB; source: E. coli C43 (DE3), co-expressed with PqiA, purified (Ni-NTA, SEC) in DDM, reconstituted into DMPC proteoliposomes; not shown: His6, C-terminal, kept
T2 sequence (looked up): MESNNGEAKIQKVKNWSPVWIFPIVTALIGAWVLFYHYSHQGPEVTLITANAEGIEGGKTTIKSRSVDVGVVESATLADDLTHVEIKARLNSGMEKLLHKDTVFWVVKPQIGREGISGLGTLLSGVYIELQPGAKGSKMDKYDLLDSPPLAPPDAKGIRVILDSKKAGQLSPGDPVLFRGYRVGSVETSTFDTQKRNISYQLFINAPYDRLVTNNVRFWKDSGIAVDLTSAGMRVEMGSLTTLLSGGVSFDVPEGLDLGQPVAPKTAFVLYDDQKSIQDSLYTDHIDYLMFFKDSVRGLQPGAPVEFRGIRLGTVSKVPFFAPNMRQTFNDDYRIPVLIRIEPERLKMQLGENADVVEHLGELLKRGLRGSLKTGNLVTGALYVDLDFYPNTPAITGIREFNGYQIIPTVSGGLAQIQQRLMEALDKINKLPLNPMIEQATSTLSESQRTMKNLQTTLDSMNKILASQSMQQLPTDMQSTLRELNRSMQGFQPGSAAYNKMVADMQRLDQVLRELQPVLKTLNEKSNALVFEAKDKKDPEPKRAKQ

B1: E. coli PqiC (residues 1–187) with a C-terminal hexa-histidine tag (natural protein, UniProt P0AB10 16-187, looked up)
chain: CSSGEINKNYYQLPVVQSGTQSTASQGNRLLWVEQVTVPDYLAGNGVVYQTSDVKYVIANNNLWASPLDQQLRNTLVANLSTQLPGWVVASQPLGSAQDTLNVTVTEFNGRYDGKVIVSGEWLLNHQGQLIKRPFRLEGVQTQDGYDEMVKVLAGVWSQEAASIAQEIKRLP
modifications: N-terminally acylated Cysteine (C16); the construct is 'presumably processed and lipidated in the same manner as the native lipoprotein'
notes: signal peptide in the construct; the N-terminal signal peptide is called residues 1–16 in the methods, while the mature lipoprotein is said to begin at the acylated C16; Octamer by the crystal's symmetry (two chains in the asymmetric unit); also called native PqiC; full length PqiC; source: E. coli C43 (DE3), membrane fraction solubilised in DDM, purified (Ni-NTA, SEC)
- stoichiometry N [1]: 8

B2: PqiC-Strep, E. coli PqiC residues 1–186 with a C-terminal StrepTag II (natural protein, UniProt P0AB10 16-186, looked up)
chain: CSSGEINKNYYQLPVVQSGTQSTASQGNRLLWVEQVTVPDYLAGNGVVYQTSDVKYVIANNNLWASPLDQQLRNTLVANLSTQLPGWVVASQPLGSAQDTLNVTVTEFNGRYDGKVIVSGEWLLNHQGQLIKRPFRLEGVQTQDGYDEMVKVLAGVWSQEAASIAQEIKRL
modifications: lipidation of Cys16 (the paper: 'a native PqiC construct was used')
notes: signal peptide in the construct; Stood in a supported DMPC bilayer on a silicon surface; also called PqiC (in QCM-D and NR); surface-tethered PqiC octamer
- binding result [2]: binds
- binding result [3]: binds
